The record followed here is patent US20110306068A1 (HYGLOS INVEST, published 2011).

The target in the assay is T1, bacteriophage tail protein T4p12 (bacteriophage T4, UniProt P10930 1-527).
T1 sequence (looked up): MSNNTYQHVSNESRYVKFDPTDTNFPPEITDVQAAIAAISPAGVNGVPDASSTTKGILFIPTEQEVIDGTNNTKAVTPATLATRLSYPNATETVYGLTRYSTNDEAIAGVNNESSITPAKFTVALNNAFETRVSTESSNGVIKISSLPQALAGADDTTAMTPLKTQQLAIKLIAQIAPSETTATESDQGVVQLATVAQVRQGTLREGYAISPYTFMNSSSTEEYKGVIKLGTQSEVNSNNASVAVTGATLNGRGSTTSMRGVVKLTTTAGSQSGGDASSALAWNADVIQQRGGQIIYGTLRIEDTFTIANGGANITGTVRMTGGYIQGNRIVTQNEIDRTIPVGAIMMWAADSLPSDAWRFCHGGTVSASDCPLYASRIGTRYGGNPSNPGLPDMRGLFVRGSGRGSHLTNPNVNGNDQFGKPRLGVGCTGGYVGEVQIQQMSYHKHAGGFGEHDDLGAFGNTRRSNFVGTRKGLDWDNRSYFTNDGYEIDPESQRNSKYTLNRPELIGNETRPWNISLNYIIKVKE
Description: column chromatography; Miro2p12 covalently immobilised on sepharose, control columns without LPS; T4p12 in fractions read by absorption at 280 nm. As to the method:
The amount of the bacteriophage tail protein p12 was plotted against the fractions of the chromatography run. […] The arrow marks the application of p12 onto the column. The fractions F2-F5 were collected after the application. The amount of p12 (stated in mg) was detected by absorption measurement at 280 nm. The fraction volume was 1 ml for fractions F1-F4 and 2 ml for fraction F5. The dissolution of bound T4p12 protein in fraction F5 was affected by addition of 2 mM EDTA to the running buffer (20 mM Hepes, 150 mM NaCl, 0.1 mM CaCl₂, pH 7.5). The bacteriophage tail protein T4p12 was retained at the columns prior loaded with endotoxin, while it elutes without delay through the columns containing no endotoxin.
Bacteriophage tail protein Miro2p12 was immobilized to NHS-Sepharose (Amersham Pharmacia) (3.4 mg protein per 1 ml sepharose) and out of this 4 column were cast with a volume of 0.5 ml each. The columns were washed with each 3 ml sodium phosphate buffer (20 mM sodium phosphate, pH 12.0) and with each 3 ml regeneration buffer (20 mM Hepes, 150 mM NaCl, 2 mM EDTA, pH 7.5). […] The flow-through was collected three times in fractions of 1 ml and once of 2 ml and the concentrations of the bacteriophage tail protein T4p12 was determined via absorption measurement at 280 nm in these fractions (FIG. 5). […]

B1: bacteriophage tail protein Miro2p12 (other)
chain: MAQNNYNHYSDLAKYTIFDPTNTQWPVAIKDVQSALELIGSWARTDTGLPVASPTVAGVIRTATQAEVDAGTIGNAAVTPATLKSTVTRPEATTAVLGLTRYATNTEAAALTAGNRTITAAALGHVFKTVKAQENVDGTVRLTTAAQAQAGTDETTAVTPKRVVEMIGKFSVSPPSYTSATESNLGLVRVATQAQVAAGAVHDGYAVTPKTFMASKASDSVFGIVKFAKDSDVASATSNNLAVTPKSLQALKSTKDKYGLTRLSGSPTTDASLAAAATDAVFKTRRINGKTLDNDITITNNDINCYTRQESDGRYMPAGTRVGNVTWVEGQSWISRGATFTCNAPWEASSRLALNVNVKFERNNDGYDNRIFRFVVIVNGSQWGGELTLNIENTKGGRNGHSWRFEAYASSNFFFNNIPPNATVQIRPTEDSRIIFYDCMLTFCTNRP
notes: The only purification described is of the N-Strep form
B1: the binding result was “no binding (tested: 0.5 ml of 0.844 mg/ml T4p12 applied)”.
